The target in one test is COBRA HA TJ2 (COBRA TJ2, designed from influenza A …). Kind of test: BLI. Particulars: both partners purified.
The target of another test is COBRA HA J4 (COBRA J4, designed from influenza A …). Kind of test: BLI. Particulars: both partners purified.

A word on the Kd: it is the free concentration of one partner at which half of the binding sites on the other are occupied at equilibrium, for simple one-to-one binding. Low readings indicate higher affinity, high ones lower affinity. What is called koff is the first-order rate constant of dissociation. Higher therefore signals fast dissociation. For orientation: kon means a measure of how fast the partners come together. A lower kon goes with slow association.

B1: mAb TJ5-13 (antibody, V domains shown)
V domain 1: QVQLVQSGAEVKKPGSSVKVSCEASGDTFTTYSGINWVRQAPGQGLEWMGGVLPNFGSPNYAQRFQGRITITVDRSTSLVHMELTNLRSDDTAVYYCTETGAYNSVGYFPYFQFRGQGTLVSVSS
V domain 2: QSVLTQPPSVSGAPGQRVTISCTGSSSNIGADYDVHWYQQLPGTAPKLLIFGNNNRPSGVPDRFSGSKSGTSASLAITGLQAEDEADYYCQSFDKSLSGSFVFGTGTKVTGQ
For B1, in the test with COBRA HA TJ2, the Kd came out at 0.05 nM, the koff worked out at 8.68e-06 s⁻¹ and the kon was found to be 159000 M⁻¹ s⁻¹. In the test with COBRA HA J4, this molecule returned a Kd of 0.26 nM, a koff of 3.06e-05 s⁻¹ and a kon of 120000 M⁻¹ s⁻¹.

B2: mAb TJ5-1 (antibody, V domains shown)
VH: EVQLVQSGAEVKKPGASVKVSCKASGYTFTGFYLHWVRQAPGQGLEWMGWINPHSGDTDFAQKFQGKVTMTRDTSSNTVYMDVNRLTSDDTAVYYCVKNDIVLGMGVWGQGTTVIVSS
VL: QSVLTQPPSVSGAPGQRVTISCTGSSSNIGAGYNVYWFQQLPPTAPKLLNYGDNNRPSGVPDRFSASKSGTSASLAITGLQAEDEAEYYCQSYDSSLNAYVFGTGTKVTVL
Consider B2, for which, in the test with COBRA HA TJ2, the affinity, expressed as Kd, was 5.64 nM; the koff stood at 0.00348 s⁻¹; the kon came to 230000 M⁻¹ s⁻¹. In the test with COBRA HA J4, this molecule yielded a Kd of 0.23 nM, a koff of 6.67e-05 s⁻¹ and a kon of 284000 M⁻¹ s⁻¹.

B3: mAb #1664 (antibody, V domains shown)
VH: EVQVMQSGAEARMTGATVKISCKASGYTFSDYFLHWVKQAPGKGLEWMGLVDVDNGEVRYAEKFQGRVTITADTSTETAYLEMTTVTSGDTAVYYCASTTPRGGNPSVYNYFFVDVWGKGTTVTVSS
VL: QPVLTQSSSASASLGSSVKLTCTLSSGHDNYIIAWHQQQPGKAPRYLMQVGAGGTYNKGSGVPHRFSGSSSGADRYLTISNLQSDDEADYYCETWDSKTVFGGGTTLTVL
In the case of B3, in the test with COBRA HA TJ2, the Kd stood at 0.45 nM, the koff was found to be 5.44e-05 s⁻¹ and the kon stood at 121000 M⁻¹ s⁻¹. Besides, in the test with COBRA HA J4, the Kd was found to be 15.2 nM, the koff was determined as 0.000454 s⁻¹ and the kon was found to be 30100 M⁻¹ s⁻¹.
